doi:10.1101/2023.08.01.551421 (bioRxiv, 2023)

Tests used:
[1] = target: the molecule itself; assay: light scattering-based polymerization assay
[2] = target: the molecule itself; assay: cross-linking
[3] = target: the molecule itself; assay: GTP hydrolysis assay

B1: GBP1 Δ207-216 variant, farnesylated (natural protein)
chain: MASEIHMTGPMCLIENTNGRLMANPEALKILSAITQPMVVVAIVGLYRTGKSYLMNKLAGKKKGFSLGSTVQSHTKGIWMWCVPHPKKPGHILVLLDTEGLGDVEKGDNQNDSWIFALAVLLSSTFVYNSIGTINQQAMDQLYYVTELTHRIRSKSSPDENENEVEDSADFVSFFPDFVWTLRDFSLDLEADGQPLTPDEYLTYSLGGGSETFNLPRLCIRKFFPKKKCFVFDRPVHRRKLAQLEKLQDEELDPEFVQQVADFCSYIFSNSKTKTLSGGIQVNGPRLESLVLTYVNAISSGDLPCMENAVLALAQIENSAAVQKAIAHYEQQMGQKVQLPTETLQELLDLHRDSEREAIEVFIRSSFKDVDHLFQKELAAQLEKKRDDFCKQNQEASSDRCSALLQVIFSPLEEEVKAGIYSKPGGYRLFVQKLQDLKKKYYEEPRKGIQAEEILQTYLKSKESMTDAILQTDQTLTEKEKEIEVERVKAESAQASAKMLQEMQRKNEQMMEQKERSYQEHLKQLTEKMENDRVQLLKEQERTLALKLQEQEQLLKEGFQKESRIMKNEIQDLQTKMRRRKACTIS
modifications: farnesyl moiety, C-terminal (CaaX box motif)
binding result [1]: binds

B2: GBP1 Δ207-216 variant, non-farnesylated (natural protein)
chain: MASEIHMTGPMCLIENTNGRLMANPEALKILSAITQPMVVVAIVGLYRTGKSYLMNKLAGKKKGFSLGSTVQSHTKGIWMWCVPHPKKPGHILVLLDTEGLGDVEKGDNQNDSWIFALAVLLSSTFVYNSIGTINQQAMDQLYYVTELTHRIRSKSSPDENENEVEDSADFVSFFPDFVWTLRDFSLDLEADGQPLTPDEYLTYSLGGGSETFNLPRLCIRKFFPKKKCFVFDRPVHRRKLAQLEKLQDEELDPEFVQQVADFCSYIFSNSKTKTLSGGIQVNGPRLESLVLTYVNAISSGDLPCMENAVLALAQIENSAAVQKAIAHYEQQMGQKVQLPTETLQELLDLHRDSEREAIEVFIRSSFKDVDHLFQKELAAQLEKKRDDFCKQNQEASSDRCSALLQVIFSPLEEEVKAGIYSKPGGYRLFVQKLQDLKKKYYEEPRKGIQAEEILQTYLKSKESMTDAILQTDQTLTEKEKEIEVERVKAESAQASAKMLQEMQRKNEQMMEQKERSYQEHLKQLTEKMENDRVQLLKEQERTLALKLQEQEQLLKEGFQKESRIMKNEIQDLQTKMRRRKACTIS
stoichiometry N [2]: 2
fold lower dimerization affinity than wild-type [3]: 1.8 fold

B3: GBP1 D199K, non-farnesylated (natural protein)
chain: MASEIHMTGPMCLIENTNGRLMANPEALKILSAITQPMVVVAIVGLYRTGKSYLMNKLAGKKKGFSLGSTVQSHTKGIWMWCVPHPKKPGHILVLLDTEGLGDVEKGDNQNDSWIFALAVLLSSTFVYNSIGTINQQAMDQLYYVTELTHRIRSKSSPDENENEVEDSADFVSFFPDFVWTLRDFSLDLEADGQPLTPKEYLTYSLKLKKGTSQKDETFNLPRLCIRKFFPKKKCFVFDRPVHRRKLAQLEKLQDEELDPEFVQQVADFCSYIFSNSKTKTLSGGIQVNGPRLESLVLTYVNAISSGDLPCMENAVLALAQIENSAAVQKAIAHYEQQMGQKVQLPTETLQELLDLHRDSEREAIEVFIRSSFKDVDHLFQKELAAQLEKKRDDFCKQNQEASSDRCSALLQVIFSPLEEEVKAGIYSKPGGYRLFVQKLQDLKKKYYEEPRKGIQAEEILQTYLKSKESMTDAILQTDQTLTEKEKEIEVERVKAESAQASAKMLQEMQRKNEQMMEQKERSYQEHLKQLTEKMENDRVQLLKEQERTLALKLQEQEQLLKEGFQKESRIMKNEIQDLQTKMRRRKACTIS
binding result [2]: binds

B4: GBP1 D199A, farnesylated (natural protein)
chain: MASEIHMTGPMCLIENTNGRLMANPEALKILSAITQPMVVVAIVGLYRTGKSYLMNKLAGKKKGFSLGSTVQSHTKGIWMWCVPHPKKPGHILVLLDTEGLGDVEKGDNQNDSWIFALAVLLSSTFVYNSIGTINQQAMDQLYYVTELTHRIRSKSSPDENENEVEDSADFVSFFPDFVWTLRDFSLDLEADGQPLTPAEYLTYSLKLKKGTSQKDETFNLPRLCIRKFFPKKKCFVFDRPVHRRKLAQLEKLQDEELDPEFVQQVADFCSYIFSNSKTKTLSGGIQVNGPRLESLVLTYVNAISSGDLPCMENAVLALAQIENSAAVQKAIAHYEQQMGQKVQLPTETLQELLDLHRDSEREAIEVFIRSSFKDVDHLFQKELAAQLEKKRDDFCKQNQEASSDRCSALLQVIFSPLEEEVKAGIYSKPGGYRLFVQKLQDLKKKYYEEPRKGIQAEEILQTYLKSKESMTDAILQTDQTLTEKEKEIEVERVKAESAQASAKMLQEMQRKNEQMMEQKERSYQEHLKQLTEKMENDRVQLLKEQERTLALKLQEQEQLLKEGFQKESRIMKNEIQDLQTKMRRRKACTIS
modifications: farnesyl moiety, C-terminal (CaaX box motif)
binding result [2]: binds

B5: GBP1 D199K, farnesylated (natural protein)
chain: MASEIHMTGPMCLIENTNGRLMANPEALKILSAITQPMVVVAIVGLYRTGKSYLMNKLAGKKKGFSLGSTVQSHTKGIWMWCVPHPKKPGHILVLLDTEGLGDVEKGDNQNDSWIFALAVLLSSTFVYNSIGTINQQAMDQLYYVTELTHRIRSKSSPDENENEVEDSADFVSFFPDFVWTLRDFSLDLEADGQPLTPKEYLTYSLKLKKGTSQKDETFNLPRLCIRKFFPKKKCFVFDRPVHRRKLAQLEKLQDEELDPEFVQQVADFCSYIFSNSKTKTLSGGIQVNGPRLESLVLTYVNAISSGDLPCMENAVLALAQIENSAAVQKAIAHYEQQMGQKVQLPTETLQELLDLHRDSEREAIEVFIRSSFKDVDHLFQKELAAQLEKKRDDFCKQNQEASSDRCSALLQVIFSPLEEEVKAGIYSKPGGYRLFVQKLQDLKKKYYEEPRKGIQAEEILQTYLKSKESMTDAILQTDQTLTEKEKEIEVERVKAESAQASAKMLQEMQRKNEQMMEQKERSYQEHLKQLTEKMENDRVQLLKEQERTLALKLQEQEQLLKEGFQKESRIMKNEIQDLQTKMRRRKACTIS
modifications: farnesyl moiety, C-terminal (CaaX box motif)
binding result [2]: binds

B6: GBP1 D199A, non-farnesylated (natural protein)
chain: MASEIHMTGPMCLIENTNGRLMANPEALKILSAITQPMVVVAIVGLYRTGKSYLMNKLAGKKKGFSLGSTVQSHTKGIWMWCVPHPKKPGHILVLLDTEGLGDVEKGDNQNDSWIFALAVLLSSTFVYNSIGTINQQAMDQLYYVTELTHRIRSKSSPDENENEVEDSADFVSFFPDFVWTLRDFSLDLEADGQPLTPAEYLTYSLKLKKGTSQKDETFNLPRLCIRKFFPKKKCFVFDRPVHRRKLAQLEKLQDEELDPEFVQQVADFCSYIFSNSKTKTLSGGIQVNGPRLESLVLTYVNAISSGDLPCMENAVLALAQIENSAAVQKAIAHYEQQMGQKVQLPTETLQELLDLHRDSEREAIEVFIRSSFKDVDHLFQKELAAQLEKKRDDFCKQNQEASSDRCSALLQVIFSPLEEEVKAGIYSKPGGYRLFVQKLQDLKKKYYEEPRKGIQAEEILQTYLKSKESMTDAILQTDQTLTEKEKEIEVERVKAESAQASAKMLQEMQRKNEQMMEQKERSYQEHLKQLTEKMENDRVQLLKEQERTLALKLQEQEQLLKEGFQKESRIMKNEIQDLQTKMRRRKACTIS
binding result [2]: binds

B7: GBP1 Δ207-213 variant, non-farnesylated (natural protein)
chain: MASEIHMTGPMCLIENTNGRLMANPEALKILSAITQPMVVVAIVGLYRTGKSYLMNKLAGKKKGFSLGSTVQSHTKGIWMWCVPHPKKPGHILVLLDTEGLGDVEKGDNQNDSWIFALAVLLSSTFVYNSIGTINQQAMDQLYYVTELTHRIRSKSSPDENENEVEDSADFVSFFPDFVWTLRDFSLDLEADGQPLTPDEYLTYSLGGGSGGGSQKDETFNLPRLCIRKFFPKKKCFVFDRPVHRRKLAQLEKLQDEELDPEFVQQVADFCSYIFSNSKTKTLSGGIQVNGPRLESLVLTYVNAISSGDLPCMENAVLALAQIENSAAVQKAIAHYEQQMGQKVQLPTETLQELLDLHRDSEREAIEVFIRSSFKDVDHLFQKELAAQLEKKRDDFCKQNQEASSDRCSALLQVIFSPLEEEVKAGIYSKPGGYRLFVQKLQDLKKKYYEEPRKGIQAEEILQTYLKSKESMTDAILQTDQTLTEKEKEIEVERVKAESAQASAKMLQEMQRKNEQMMEQKERSYQEHLKQLTEKMENDRVQLLKEQERTLALKLQEQEQLLKEGFQKESRIMKNEIQDLQTKMRRRKACTIS
stoichiometry N [2]: 2
fold lower dimerization affinity than wild-type [3]: 3 fold

B8: GBP1 Δ207-213 variant, farnesylated (natural protein)
chain: MASEIHMTGPMCLIENTNGRLMANPEALKILSAITQPMVVVAIVGLYRTGKSYLMNKLAGKKKGFSLGSTVQSHTKGIWMWCVPHPKKPGHILVLLDTEGLGDVEKGDNQNDSWIFALAVLLSSTFVYNSIGTINQQAMDQLYYVTELTHRIRSKSSPDENENEVEDSADFVSFFPDFVWTLRDFSLDLEADGQPLTPDEYLTYSLGGGSGGGSQKDETFNLPRLCIRKFFPKKKCFVFDRPVHRRKLAQLEKLQDEELDPEFVQQVADFCSYIFSNSKTKTLSGGIQVNGPRLESLVLTYVNAISSGDLPCMENAVLALAQIENSAAVQKAIAHYEQQMGQKVQLPTETLQELLDLHRDSEREAIEVFIRSSFKDVDHLFQKELAAQLEKKRDDFCKQNQEASSDRCSALLQVIFSPLEEEVKAGIYSKPGGYRLFVQKLQDLKKKYYEEPRKGIQAEEILQTYLKSKESMTDAILQTDQTLTEKEKEIEVERVKAESAQASAKMLQEMQRKNEQMMEQKERSYQEHLKQLTEKMENDRVQLLKEQERTLALKLQEQEQLLKEGFQKESRIMKNEIQDLQTKMRRRKACTIS
modifications: farnesyl moiety, C-terminal (CaaX box motif)
binding result [1]: binds
